Laboratory results taken from patent publication US20250145697A1 (WASHINGTON UNIVERSITY, published 2025).

What was measured:
[1] = target: T1, recombinant alipidated human ApoE3 (human, UniProt P02649 19-317); assay: direct ELISA on coated recombinant alipidated ApoE (0.5 ug/ml)
T1 construct: mature; full length recombinant protein made in E. coli or bought
Procedure, shortened: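 Plates coated overnight with full-length recombinant alipidated ApoE (0.5 μg/ml), from E. coli or a commercial source, were washed, blocked and incubated with anti-ApoE antibody. Binding was detected with goat anti-mouse IgG-HRP to generate dose-response curves.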

[2] = target: T2, heat-induced aggregates of ApoE3 (human, UniProt P02649 19-317); assay: ELISA: pellet of heat-aggregated ApoE3 coated at 0.5 ug/ml, antibody titrated, HRP goat anti-mouse IgG, OD650
T2 construct: mature; aggregated state of the recombinant protein; also called heat treated ApoE3
Method: The aggregated ApoE was induced by incubating ApoE at 1 mg/ml concentration at 40° C. for 24 hours. The aggregates then were recovered in the pellet fraction following ultracentrifugation at 186,000 g for 1 hour. For ELISA, the untreated ApoE or heat-induced aggregates of ApoE were coated directly to ELISA plates at 0.5 μg/ml overnight at 4° C. After three washes with PBS, the wells were blocked with 1% BSA-PBS for 1 hour at room temperature with shaking at 500 rpm. The blocked wells were washed once with PBS and subsequently loaded with antibodies at serial concentrations (starting at 100 nM with 5-fold dilutions thereafter). Bound antibodies were detected with HRP-labeled goat anti-mouse IgG (Jackson Immunoresearch) and visualized with TMB substrate at OD₆₅₀ (reaction stopped with BioFX stop solution).

[3] = target: T3, recombinant alipidated human ApoE4 (human, UniProt P02649 19-317); assay: ELISA, plate coated with 0.5 ug/ml recombinant apoE4, HRP goat anti-mouse detection, OD450
T3 construct: mature; full length recombinant protein made in E. coli or bought; biotinylated for SPR; position 112 is counted on the mature protein, not on the precursor entry; also called recApoE; non-lipidated ApoE4
Method: (§1) ELISA plates were coated with 0.5 μg/ml of recombinant apoE2 (square), apoE3 (open circle), or apoE4 (closed circle). Then different concentrations of (A) HJ151, (B) HJ153, (C) HJ154, or (D) HJ156 were loaded on the plates. Horse-radish peroxidase labeled goat anti-mouse secondary antibodies were used to detect binding. […] HJ151 is specific for ApoE4 and HJ156 binds only ApoE3 and ApoE4. FIG. 5E-H are graphs depicting surface plasmon resonance profiles for various antibodies. Anti-ApoE antibodies were serially diluted 3-fold (starting at 100 nM for HJ153 (E), and 1000 nM for HJ151 (F), and […] (G)) for detection of binding to biotinylated-recombinant apoE4 captured on a streptavidin chip. Samples were injected at a flow rate of 30 μl/minute. (H) Apparent KD values of HJ151, HJ153 and HJ156 were calculated based on the SPR experiment.
(§2) ELISA plates were coated with 0.5 μg/ml of recombinant apoE2, apoE3, or apoE4. Then different concentrations of HJ151 (FIG. 5A), HJ153 (FIG. 5B), HJ154 (FIG. 5C), or HJ156 (FIG. 5D) were loaded on the plates. Horse-radish peroxidase labeled goat anti-mouse secondary antibodies were used to detect binding. […] HJ151 is specific for ApoE4 and HJ156 binds only ApoE3 and ApoE4. Surface plasmon resonance profiles for various antibodies was also performed.

[4] = target: T4, ApoE4 amino acids 1-132, expressed on yeast (human, UniProt P02649 19-150); assay: yeast display of myc-tagged ApoE4 fragment, antibody staining
T4 construct: with myc tag, on yeast cells; range counts on the mature protein; also called up to helix 3; not shown: myc tag and yeast surface-display partner
T4 chain: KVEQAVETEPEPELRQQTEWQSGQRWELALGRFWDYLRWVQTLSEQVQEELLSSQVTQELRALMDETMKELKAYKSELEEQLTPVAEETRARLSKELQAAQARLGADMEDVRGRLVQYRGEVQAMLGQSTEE

[5] = target: T5, ApoE4 amino acids 24-125, expressed on yeast (human, UniProt P02649 42-143); assay: as above
T5 construct: with myc tag, on yeast cells; range counts on the mature protein; also called helix1 + 2 + 3
T5 chain: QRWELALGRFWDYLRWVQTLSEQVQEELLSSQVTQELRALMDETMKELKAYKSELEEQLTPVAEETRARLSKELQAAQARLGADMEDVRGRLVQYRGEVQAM

[6] = target: T3, recombinant alipidated human ApoE4; assay: SPR, biotinylated recombinant apoE4 captured on a streptavidin chip; column Apparent KD (M)
Method: as §1, §2
Target sequence in this assay (P02649 19-317 C130R): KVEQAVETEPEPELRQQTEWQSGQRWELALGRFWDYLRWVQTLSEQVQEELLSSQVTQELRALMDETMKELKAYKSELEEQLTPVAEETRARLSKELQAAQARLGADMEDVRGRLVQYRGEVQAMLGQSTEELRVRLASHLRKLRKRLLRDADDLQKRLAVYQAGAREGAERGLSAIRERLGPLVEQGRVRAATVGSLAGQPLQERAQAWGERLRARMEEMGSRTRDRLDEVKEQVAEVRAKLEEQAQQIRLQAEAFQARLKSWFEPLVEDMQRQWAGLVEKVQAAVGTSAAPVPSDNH

[7] = target: T3, recombinant alipidated human ApoE4; assay: SPR, biotinylated recombinant apoE4 captured on a streptavidin chip; column Ka (1/Ms)
Method: as §1, §2
Target sequence in this assay (P02649 19-317 C130R): as above

murine ApoE = target: T6, murine ApoE (mouse, UniProt P08226 19-311); assay: not described
T6 sequence (looked up): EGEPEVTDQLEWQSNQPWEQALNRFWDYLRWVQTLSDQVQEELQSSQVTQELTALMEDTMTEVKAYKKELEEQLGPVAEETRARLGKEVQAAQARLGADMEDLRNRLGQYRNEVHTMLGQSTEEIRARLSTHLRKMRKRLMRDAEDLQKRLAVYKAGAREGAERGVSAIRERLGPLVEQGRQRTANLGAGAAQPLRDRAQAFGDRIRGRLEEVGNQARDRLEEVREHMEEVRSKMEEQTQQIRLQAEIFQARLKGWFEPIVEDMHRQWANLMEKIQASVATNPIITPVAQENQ

[8] = target: T3, recombinant alipidated human ApoE4; assay: SPR, biotinylated recombinant apoE4 captured on a streptavidin chip; column Kd (1/s)
Method: as §1, §2
Target sequence in this assay (P02649 19-317 C130R): as the sequence (P02649 19-317 C130R) above

T1 sequence (P02649 19-317): as the sequence (P02649 19-317 C130R) above, with R112C counted along it
T2 sequence (P02649 19-317): as the sequence (P02649 19-317 C130R) above, with R112C counted along it

Row | Binder | EC50 [1] [pM] | EC50 (read off the curve) [2] [pM] | EC50 (read off the curve) [3] [pM] | binding result [4] | binding result [5] | Kd [6] [pM] | kon [7] [M⁻¹ s⁻¹] | binding result (murine ApoE) | koff [8] [s⁻¹]
1 | HJ154 (antibody, V domains shown, murine monoclonal antibody from hybridoma; also called HJ154B (biotinylated)) VH: QVQLQQPGTEFVMSGASVMLSCKASGYIFTNYWLHWVKQRPGHGLEWIGEIDPSDSYSICNDNFKGKSTLTVDKSSSTAYMQLSSLTSEDSAVYYCAGSLGRVGLAYWGQGTLVTVST VL: QIVLTQSPAIMSASPGEKVTMSCSASSSVSNMYWYQQKPGSSPKSWIYRTSNLASGVPARFSGSGSGTSYSLTISNMEAEDAATYYCQHYQNYPLTFGAGTKLELKR | 240 | 160 to 200 | ~300 | binds | binds | – | – | – | –
2 | HJ151 (antibody, V domains shown, murine monoclonal antibody from hybridoma; also called HJ151B (biotinylated)) VH: QVQLQQSGAELVRPGASVTLSCKASGYTFTDYEMHWVKQTPVHGLEWIGVIDPEKGGTAYNQKFKGKAILTADKSSSTAYMDLRSLTSEDSAVYYCLKDSWGQGTTLTVSS VL: DVLMTQTPLSLPVSLGDQASISCRSSQTIVHSDGNTYLEWYLQKPGQSPKLLIYKVSNRFSGVPDRFSGSGSGTYFTLKISRVEAEDLGVYYCFQGSHVPCTFGGGTKLEIKR | – | – | ~500 | binds | binds | 60200 | 19700 | no binding | 0.00119
3 | HJ156 (antibody, V domains shown, murine monoclonal antibody from hybridoma; also called HJ156B (biotinylated)) VH: QVQLQQSGPELVKPGASVKISCKASGYIFTDYYINWVKRRPGQGLEWIGWIFPGSGVSYYNEQFKGKATLTVDKPSNTAYIFLSRLTSEDSAVYFCARYYSSSPFAYWGQGTLVTVSA VL: DVLMTQTPLSLPVSLGDQASISCRSSQNIIHSNGNTYLEWFLQRPGQSPELLIYKVSNRFSGVPDRFSGSGSGTDFTLKISRVEAEDLGVYYCFQGSHVPYTFGGGTKLEIKR | 1690 | ~90 | ~1000 | – | – | 198000 | 26400 | no binding | 0.00523
